Columns and labels:
FOXN1 forkhead domain [1] = target: T1, FOXN1 forkhead domain (human, UniProt O15353 270-366); assay: EMSA; no significant binding over the concentration range tested; EMSA: 50 mM Tris-HCl pH 7.5, 25 mM NaCl, 0.5 mM EDTA, 0.1% Tween 20, 2 mM DTT, 5% glycerol, 30 min room temperature; FP: 10 mM HEPES pH 7.5, 50 mM NaCl, 1 mM TCEP, 10 nM probe; conditions: protein: recombinant; tags: His tag (pNIC28-Bsa4), cleaved with TEV; label: 32P on forward strand (5', T4 PNK); blunt
T1 sequence: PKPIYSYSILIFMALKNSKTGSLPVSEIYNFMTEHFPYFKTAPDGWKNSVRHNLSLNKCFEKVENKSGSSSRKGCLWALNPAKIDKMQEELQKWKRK

FOXN1 1-614 [2] = target: T2, FOXN1 1-614 (human, UniProt O15353 1-614); assay: EMSA; apparent Kd; multiple shifted species; EMSA: 50 mM Tris-HCl pH 7.5, 25 mM NaCl, 0.5 mM EDTA, 0.1% Tween 20, 2 mM DTT, 5% glycerol, 30 min room temperature; FP: 10 mM HEPES pH 7.5, 50 mM NaCl, 1 mM TCEP, 10 nM probe; conditions: protein: recombinant; tags: His tag (pNIC28-Bsa4), cleaved with TEV; label: 32P on forward strand (5', T4 PNK); blunt
T2 sequence: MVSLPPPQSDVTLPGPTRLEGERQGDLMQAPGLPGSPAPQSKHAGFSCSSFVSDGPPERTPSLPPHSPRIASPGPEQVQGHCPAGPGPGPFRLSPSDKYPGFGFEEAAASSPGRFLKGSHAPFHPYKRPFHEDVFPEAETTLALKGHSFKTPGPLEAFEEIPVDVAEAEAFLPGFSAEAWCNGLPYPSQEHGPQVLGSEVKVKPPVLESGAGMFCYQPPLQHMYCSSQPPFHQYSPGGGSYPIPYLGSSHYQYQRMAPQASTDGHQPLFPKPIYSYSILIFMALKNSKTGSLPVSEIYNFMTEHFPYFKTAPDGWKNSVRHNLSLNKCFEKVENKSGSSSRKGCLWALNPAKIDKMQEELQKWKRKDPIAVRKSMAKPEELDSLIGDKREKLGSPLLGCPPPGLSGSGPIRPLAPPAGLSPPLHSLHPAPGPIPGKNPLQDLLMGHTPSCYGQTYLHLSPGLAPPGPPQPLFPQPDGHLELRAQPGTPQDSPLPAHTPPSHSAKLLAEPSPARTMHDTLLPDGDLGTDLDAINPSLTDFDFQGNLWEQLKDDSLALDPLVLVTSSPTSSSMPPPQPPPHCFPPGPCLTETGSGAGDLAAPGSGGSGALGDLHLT

FOXN1 1-614 [3] = target: T2, FOXN1 1-614; assay: EMSA; apparent Kd; EMSA: 50 mM Tris-HCl pH 7.5, 25 mM NaCl, 0.5 mM EDTA, 0.1% Tween 20, 2 mM DTT, 5% glycerol, 30 min room temperature; FP: 10 mM HEPES pH 7.5, 50 mM NaCl, 1 mM TCEP, 10 nM probe; conditions: protein: recombinant; tags: His tag (pNIC28-Bsa4), cleaved with TEV; label: 32P on forward strand (5', T4 PNK); blunt
FOXN1 1-614 [4] = target: T2, FOXN1 1-614; assay: fluorescence polarization; EMSA: 50 mM Tris-HCl pH 7.5, 25 mM NaCl, 0.5 mM EDTA, 0.1% Tween 20, 2 mM DTT, 5% glycerol, 30 min room temperature; FP: 10 mM HEPES pH 7.5, 50 mM NaCl, 1 mM TCEP, 10 nM probe; conditions: protein: recombinant; tags: His tag (pNIC28-Bsa4), cleaved with TEV; label: 3' FITC on strand 1; blunt
FOXN1 forkhead domain [5] = target: T1, FOXN1 forkhead domain; assay: X-ray crystallography; 1.6 A structure; crystals at pH 4.5; EMSA: 50 mM Tris-HCl pH 7.5, 25 mM NaCl, 0.5 mM EDTA, 0.1% Tween 20, 2 mM DTT, 5% glycerol, 30 min room temperature; FP: 10 mM HEPES pH 7.5, 50 mM NaCl, 1 mM TCEP, 10 nM probe; conditions: protein: recombinant; tags: His tag (pNIC28-Bsa4), cleaved with TEV; blunt

B1: PSMA7 tandem FHL EMSA probe (dsDNA)
DNA 1: GCAGCAGACGCAACAGAGCGAGACGCCAGGG
DNA 2: CCCTGGCGTCTCGCTCTGTTGCGTCTGCTGC
- binding result (FOXN1 forkhead domain [1]): no binding
- Kd (FOXN1 1-614 [2]): 82 ± 8 nM

B2: tandem FKH EMSA probe (dsDNA)
DNA 1: AGCATAAACAACAGAGCGATAAACCAGG
DNA 2: CCTGGTTTATCGCTCTGTTGTTTATGCT
- Kd (FOXN1 1-614 [3]): 205 ± 21 nM

B3: tandem FHL FP probe (dsDNA)
DNA 1: GCAGCAGACGCAACAGAGCGAGACGCCAGGG
DNA 2: CCCTGGCGTCTCGCTCTGTTGCGTCTGCTGC
- Kd (FOXN1 1-614 [4]): 38 ± 3.3 nM

B4: tandem FKH FP probe (dsDNA)
DNA 1: GCAGCATAAACAACAGAGCGATAAACCAGGG
DNA 2: CCCTGGTTTATCGCTCTGTTGTTTATGCTGC
- Kd (FOXN1 1-614 [4]): 85 ± 11 nM

B5: Psmb11 FHL 13-mer (dsDNA)
DNA 1: TGAAGACGCCACC
DNA 2: GGTGGCGTCTTCA
- binding result (FOXN1 forkhead domain [5]): binds

Source: publication PMC7062188, “The crystal structure of human forkhead box N1 in complex with DNA reveals the structural basis for forkhead box family specificity”
